Patent US20250163140A1

Biological target: Recombinant Human FGF-23 (R&D Systems, Cat No. 2604-FG-025/CF) (human) (UniProt Q9GZV9)
Assay: cell-based or functional assay

Recombinant Human FGF-23 (R&D Systems, Cat No. 2604-FG-025/CF) (human), sequence (Q9GZV9 25-251 limits assumed): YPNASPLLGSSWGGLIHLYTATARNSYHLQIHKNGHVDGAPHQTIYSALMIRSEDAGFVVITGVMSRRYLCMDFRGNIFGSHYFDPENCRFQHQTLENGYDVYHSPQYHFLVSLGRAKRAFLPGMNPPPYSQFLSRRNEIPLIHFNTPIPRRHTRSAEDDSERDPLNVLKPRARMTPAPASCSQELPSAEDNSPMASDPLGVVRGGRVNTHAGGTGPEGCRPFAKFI

Binder | FGF23 neutralizing activity IC50 (luciferase promoter assay)
antibody D105N_G2_YTE (antibody) heavy: QVQLVQSGAEVKKPGASVKVSCKASGYTFTNHYMHWVRQAPGQGLEWMGIINPISGSTSNAQKFQGRVTMTRDTSTSTVYMELSSLRSEDTAVYYCARDIVDAFNFWGQGTMVTVSSASTKGPSVFPLAPCSRSTSESTAALGCLVKDYFPEPVTVSWNSGALTSGVHTFPAVLQSSGLYSLSSVVTVPSSNFGTQTYTCNVDHKPSNTKVDKTVERKCCVECPPCPAPPVAGPSVFLFPPKPKDTLYITREPEVTCVVVDVSHEDPEVQFNWYVDGVEVHNAKTKPREEQFNSTFRVVSVLTVVHQDWLNGKEYKCKVSNKGLPAPIEKTISKTKGQPREPQVYTLPPSREEMTKNQVSLTCLVKGFYPSDIAVEWESNGQPENNYKTTPPMLDSDGSFFLYSKLTVDKSRWQQGNVFSCSVMHEALHNHYTQKSLSLSPGK light: AIQLTQSPSSLSASVGDRVTITCRASQGISSALVWYQQKPGKAPKLLIYDASSLESGVPSRFSGSGSGTDFTLTISSLQPEDFATYYCQQFNDYFTFGPGTKVDIK | 12.4 ng/mL
antibody I100Y_G2_YTE (antibody) heavy: QVQLVQSGAEVKKPGASVKVSCKASGYTFTNHYMHWVRQAPGQGLEWMGIINPISGSTSNAQKFQGRVTMTRDTSTSTVYMELSSLRSEDTAVYYCARDYVDAFDFWGQGTMVTVSSASTKGPSVFPLAPCSRSTSESTAALGCLVKDYFPEPVTVSWNSGALTSGVHTFPAVLQSSGLYSLSSVVTVPSSNFGTQTYTCNVDHKPSNTKVDKTVERKCCVECPPCPAPPVAGPSVFLFPPKPKDTLYITREPEVTCVVVDVSHEDPEVQFNWYVDGVEVHNAKTKPREEQFNSTFRVVSVLTVVHQDWLNGKEYKCKVSNKGLPAPIEKTISKTKGQPREPQVYTLPPSREEMTKNQVSLTCLVKGFYPSDIAVEWESNGQPENNYKTTPPMLDSDGSFFLYSKLTVDKSRWQQGNVFSCSVMHEALHNHYTQKSLSLSPGK light: AIQLTQSPSSLSASVGDRVTITCRASQGISSALVWYQQKPGKAPKLLIYDASSLESGVPSRFSGSGSGTDFTLTISSLQPEDFATYYCQQFNDYFTFGPGTKVDIK | 2.9 ng/mL
antibody I100A_G2_YTE (antibody) heavy: QVQLVQSGAEVKKPGASVKVSCKASGYTFTNHYMHWVRQAPGQGLEWMGIINPISGSTSNAQKFQGRVTMTRDTSTSTVYMELSSLRSEDTAVYYCARDAVDAFDFWGQGTMVTVSSASTKGPSVFPLAPCSRSTSESTAALGCLVKDYFPEPVTVSWNSGALTSGVHTFPAVLQSSGLYSLSSVVTVPSSNFGTQTYTCNVDHKPSNTKVDKTVERKCCVECPPCPAPPVAGPSVFLFPPKPKDTLYITREPEVTCVVVDVSHEDPEVQFNWYVDGVEVHNAKTKPREEQFNSTFRVVSVLTVVHQDWLNGKEYKCKVSNKGLPAPIEKTISKTKGQPREPQVYTLPPSREEMTKNQVSLTCLVKGFYPSDIAVEWESNGQPENNYKTTPPMLDSDGSFFLYSKLTVDKSRWQQGNVFSCSVMHEALHNHYTQKSLSLSPGK light: AIQLTQSPSSLSASVGDRVTITCRASQGISSALVWYQQKPGKAPKLLIYDASSLESGVPSRFSGSGSGTDFTLTISSLQPEDFATYYCQQFNDYFTFGPGTKVDIK | 5 ng/mL
antibody I100H_G2_LS (antibody) heavy: QVQLVQSGAEVKKPGASVKVSCKASGYTFTNHYMHWVRQAPGQGLEWMGIINPISGSTSNAQKFQGRVTMTRDTSTSTVYMELSSLRSEDTAVYYCARDHVDAFDFWGQGTMVTVSSASTKGPSVFPLAPCSRSTSESTAALGCLVKDYFPEPVTVSWNSGALTSGVHTFPAVLQSSGLYSLSSVVTVPSSNFGTQTYTCNVDHKPSNTKVDKTVERKCCVECPPCPAPPVAGPSVFLFPPKPKDTLMISRTPEVTCVVVDVSHEDPEVQFNWYVDGVEVHNAKTKPREEQFNSTFRVVSVLTVVHQDWLNGKEYKCKVSNKGLPAPIEKTISKTKGQPREPQVYTLPPSREEMTKNQVSLTCLVKGFYPSDIAVEWESNGQPENNYKTTPPMLDSDGSFFLYSKLTVDKSRWQQGNVFSCSVLHEALHSHYTQKSLSLSPGK light: AIQLTQSPSSLSASVGDRVTITCRASQGISSALVWYQQKPGKAPKLLIYDASSLESGVPSRFSGSGSGTDFTLTISSLQPEDFATYYCQQFNDYFTFGPGTKVDIK | 13 ng/mL
antibody D105N_IgG4PE_R409K_LS (antibody) heavy: QVQLVQSGAEVKKPGASVKVSCKASGYTFTNHYMHWVRQAPGQGLEWMGIINPISGSTSNAQKFQGRVTMTRDTSTSTVYMELSSLRSEDTAVYYCARDIVDAFNFWGQGTMVTVSSASTKGPSVFPLAPCSRSTSESTAALGCLVKDYFPEPVTVSWNSGALTSGVHTFPAVLQSSGLYSLSSVVTVPSSSLGTKTYTCNVDHKPSNTKVDKRVESKYGPPCPPCPAPEFEGGPSVFLFPPKPKDTLMISRTPEVTCVVVDVSQEDPEVQFNWYVDGVEVHNAKTKPREEQFNSTYRVVSVLTVLHQDWLNGKEYKCKVSNKGLPSSIEKTISKAKGQPREPQVYTLPPSQEEMTKNQVSLTCLVKGFYPSDIAVEWESNGQPENNYKTTPPVLDSDGSFFLYSKLTVDKSRWQEGNVFSCSVLHEALHSHYTQKSLSLSLGK light: AIQLTQSPSSLSASVGDRVTITCRASQGISSALVWYQQKPGKAPKLLIYDASSLESGVPSRFSGSGSGTDFTLTISSLQPEDFATYYCQQFNDYFTFGPGTKVDIK | 11.7 ng/mL
antibody I100A_G2_LS (antibody) heavy: QVQLVQSGAEVKKPGASVKVSCKASGYTFTNHYMHWVRQAPGQGLEWMGIINPISGSTSNAQKFQGRVTMTRDTSTSTVYMELSSLRSEDTAVYYCARDAVDAFDFWGQGTMVTVSSASTKGPSVFPLAPCSRSTSESTAALGCLVKDYFPEPVTVSWNSGALTSGVHTFPAVLQSSGLYSLSSVVTVPSSNFGTQTYTCNVDHKPSNTKVDKTVERKCCVECPPCPAPPVAGPSVFLFPPKPKDTLMISRTPEVTCVVVDVSHEDPEVQFNWYVDGVEVHNAKTKPREEQFNSTFRVVSVLTVVHQDWLNGKEYKCKVSNKGLPAPIEKTISKTKGQPREPQVYTLPPSREEMTKNQVSLTCLVKGFYPSDIAVEWESNGQPENNYKTTPPMLDSDGSFFLYSKLTVDKSRWQQGNVFSCSVLHEALHSHYTQKSLSLSPGK light: AIQLTQSPSSLSASVGDRVTITCRASQGISSALVWYQQKPGKAPKLLIYDASSLESGVPSRFSGSGSGTDFTLTISSLQPEDFATYYCQQFNDYFTFGPGTKVDIK | 2.4 ng/mL

The next lines start with the values.

FGF23 neutralizing activity IC50 (luciferase promoter assay) | Binder
6.6 ng/mL | antibody I100A_IgG4PE_R409K_LS (antibody) heavy: QVQLVQSGAEVKKPGASVKVSCKASGYTFTNHYMHWVRQAPGQGLEWMGIINPISGSTSNAQKFQGRVTMTRDTSTSTVYMELSSLRSEDTAVYYCARDAVDAFDFWGQGTMVTVSSASTKGPSVFPLAPCSRSTSESTAALGCLVKDYFPEPVTVSWNSGALTSGVHTFPAVLQSSGLYSLSSVVTVPSSSLGTKTYTCNVDHKPSNTKVDKRVESKYGPPCPPCPAPEFEGGPSVFLFPPKPKDTLMISRTPEVTCVVVDVSQEDPEVQFNWYVDGVEVHNAKTKPREEQFNSTYRVVSVLTVLHQDWLNGKEYKCKVSNKGLPSSIEKTISKAKGQPREPQVYTLPPSQEEMTKNQVSLTCLVKGFYPSDIAVEWESNGQPENNYKTTPPVLDSDGSFFLYSKLTVDKSRWQEGNVFSCSVLHEALHSHYTQKSLSLSLGK light: AIQLTQSPSSLSASVGDRVTITCRASQGISSALVWYQQKPGKAPKLLIYDASSLESGVPSRFSGSGSGTDFTLTISSLQPEDFATYYCQQFNDYFTFGPGTKVDIK
12.4 ng/mL | antibody D105N_G2_LS (antibody) heavy: QVQLVQSGAEVKKPGASVKVSCKASGYTFTNHYMHWVRQAPGQGLEWMGIINPISGSTSNAQKFQGRVTMTRDTSTSTVYMELSSLRSEDTAVYYCARDIVDAFNFWGQGTMVTVSSASTKGPSVFPLAPCSRSTSESTAALGCLVKDYFPEPVTVSWNSGALTSGVHTFPAVLQSSGLYSLSSVVTVPSSNFGTQTYTCNVDHKPSNTKVDKTVERKCCVECPPCPAPPVAGPSVFLFPPKPKDTLMISRTPEVTCVVVDVSHEDPEVQFNWYVDGVEVHNAKTKPREEQFNSTFRVVSVLTVVHQDWLNGKEYKCKVSNKGLPAPIEKTISKTKGQPREPQVYTLPPSREEMTKNQVSLTCLVKGFYPSDIAVEWESNGQPENNYKTTPPMLDSDGSFFLYSKLTVDKSRWQQGNVFSCSVLHEALHSHYTQKSLSLSPGK light: AIQLTQSPSSLSASVGDRVTITCRASQGISSALVWYQQKPGKAPKLLIYDASSLESGVPSRFSGSGSGTDFTLTISSLQPEDFATYYCQQFNDYFTFGPGTKVDIK
13.1 ng/mL | antibody I100H_IgG4PE_R409K_LS (antibody) heavy: QVQLVQSGAEVKKPGASVKVSCKASGYTFTNHYMHWVRQAPGQGLEWMGIINPISGSTSNAQKFQGRVTMTRDTSTSTVYMELSSLRSEDTAVYYCARDHVDAFDFWGQGTMVTVSSASTKGPSVFPLAPCSRSTSESTAALGCLVKDYFPEPVTVSWNSGALTSGVHTFPAVLQSSGLYSLSSVVTVPSSSLGTKTYTCNVDHKPSNTKVDKRVESKYGPPCPPCPAPEFEGGPSVFLFPPKPKDTLMISRTPEVTCVVVDVSQEDPEVQFNWYVDGVEVHNAKTKPREEQFNSTYRVVSVLTVLHQDWLNGKEYKCKVSNKGLPSSIEKTISKAKGQPREPQVYTLPPSQEEMTKNQVSLTCLVKGFYPSDIAVEWESNGQPENNYKTTPPVLDSDGSFFLYSKLTVDKSRWQEGNVFSCSVLHEALHSHYTQKSLSLSLGK light: AIQLTQSPSSLSASVGDRVTITCRASQGISSALVWYQQKPGKAPKLLIYDASSLESGVPSRFSGSGSGTDFTLTISSLQPEDFATYYCQQFNDYFTFGPGTKVDIK
8.9 ng/mL | antibody I100H_G2_YTE (antibody) heavy: QVQLVQSGAEVKKPGASVKVSCKASGYTFTNHYMHWVRQAPGQGLEWMGIINPISGSTSNAQKFQGRVTMTRDTSTSTVYMELSSLRSEDTAVYYCARDHVDAFDFWGQGTMVTVSSASTKGPSVFPLAPCSRSTSESTAALGCLVKDYFPEPVTVSWNSGALTSGVHTFPAVLQSSGLYSLSSVVTVPSSNFGTQTYTCNVDHKPSNTKVDKTVERKCCVECPPCPAPPVAGPSVFLFPPKPKDTLYITREPEVTCVVVDVSHEDPEVQFNWYVDGVEVHNAKTKPREEQFNSTFRVVSVLTVVHQDWLNGKEYKCKVSNKGLPAPIEKTISKTKGQPREPQVYTLPPSREEMTKNQVSLTCLVKGFYPSDIAVEWESNGQPENNYKTTPPMLDSDGSFFLYSKLTVDKSRWQQGNVFSCSVMHEALHNHYTQKSLSLSPGK light: AIQLTQSPSSLSASVGDRVTITCRASQGISSALVWYQQKPGKAPKLLIYDASSLESGVPSRFSGSGSGTDFTLTISSLQPEDFATYYCQQFNDYFTFGPGTKVDIK
